# Patent US20250326817A1 (LA JOLLA INSTITUTE FOR IMMUNOLOGY, published 2025)
# T1: single chain homotrimeric mouse LIGHT extracellular domain (G73-V239), N-terminal HHHHHHGG, joined by two … (mouse, UniProt Q9QYH9 73-239)
# T1 construct: Soluble analyte of the Octet assay; from Expi293 cells; also called mLIGHT
# T1 sequence: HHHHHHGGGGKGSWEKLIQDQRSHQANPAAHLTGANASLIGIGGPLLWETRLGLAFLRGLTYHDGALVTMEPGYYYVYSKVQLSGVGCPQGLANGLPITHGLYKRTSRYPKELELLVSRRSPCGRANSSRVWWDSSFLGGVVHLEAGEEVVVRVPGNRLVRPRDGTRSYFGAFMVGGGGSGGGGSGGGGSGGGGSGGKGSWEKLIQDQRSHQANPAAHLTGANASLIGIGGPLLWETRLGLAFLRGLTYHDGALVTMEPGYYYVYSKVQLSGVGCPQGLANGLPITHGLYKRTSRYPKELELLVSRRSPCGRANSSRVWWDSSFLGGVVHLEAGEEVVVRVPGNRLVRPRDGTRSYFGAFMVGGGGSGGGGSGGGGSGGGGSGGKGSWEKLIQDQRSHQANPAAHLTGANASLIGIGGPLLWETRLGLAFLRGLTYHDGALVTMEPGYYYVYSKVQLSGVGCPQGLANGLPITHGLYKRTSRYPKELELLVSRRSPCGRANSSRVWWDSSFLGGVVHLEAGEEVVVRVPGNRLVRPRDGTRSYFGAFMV
# B1: mouse BTLA, soluble protein (analyte of the Octet assay) (receptor, UniProt Q7TSA3 30-183, looked up)
# chain: EKATKRNDEECPVQLTITRNSKQSARTGELFKIQCPVKYCVHRPNVTWCKHNGTICVPLEVSPQLYTSWEENQSVPVFVLHFKPIHLSDNGSYSCSTNFNSQVINSHSVTIHVRERTQNSSEHPLITVSDIPDATNASGPSTMEERPGRTWLLY
# notes: The construct is not described; also called mBTLA; mBTLA-penta-His-tag
# B2: mouse CD160 residues I30-H154 with C-terminal HHHHHHGGGGSGLNDIFEAQKIEWHE, refolded from E. coli inclusion bodies (receptor)
# chain: IHVTSSASQKGGRLDLTCTLWHKKDEAEGLILFWCKDNPWNCSPETNLEQLRVKRDPETDGITEKSSQLVFTIEQATPSDSGTYQCCARSQKPEIYIHGHFLSVLVTGNHTEIRQRQRSHPDFSHHHHHHHGGGGSGLNDIFEAQKIEWHE
# modifications: biotin (mCD160-biotin in the cell staining assay; site not stated)
# notes: range 30-154; also called mCD160; mCD160-biotin
# Experiments:
# [1] = biological target: T2, mouse HVEM (Q39-Q206), wild type, fused to human IgG1 and a hexa-His tag (mouse; human, UniProt Q80WM9 39-206); assay: Octet bio-layer interferometry, mHVEM-hIgG1 on the sensor, mBTLA in solution
# T2 construct: From Expi293 cells; also called mHVEM-hIgG1; mHVEMWT; not shown: human IgG1
# From the text: (§1) Error bars represent results from at least triplicates. […] Ligands BTLA, CD160 and LIGHT are modeled based on the HVEM structures and are shown as labeled surfaces.
# (§2) The results were exported and then analyzed using Prism 5 (GraphPad Software). Final response curves were generated after subtracting the responses of the control groups.
# [2] = biological target: T2, mouse HVEM (Q39-Q206), wild type, fused …; assay: Octet bio-layer interferometry, mHVEM-hIgG1 on the sensor, BTLA in solution
# From the text: as §2
# [3] = biological target: T2, mouse HVEM (Q39-Q206), wild type, fused …; assay: Octet bio-layer interferometry, mHVEM-hIgG1 on the sensor, CD160 in solution
# From the text: as §2
# [4] = biological target: T2, mouse HVEM (Q39-Q206), wild type, fused …; assay: Octet bio-layer interferometry, mHVEM-hIgG1 on the sensor, mCD160 in solution
# From the text: as §1, §2
# [5] = biological target: B1; assay: Octet bio-layer interferometry, mHVEM-hIgG1 on the sensor, mBTLA in solution
# From the text: as §1, §2
# [6] = biological target: B2; assay: Octet bio-layer interferometry, mHVEM-hIgG1 on the sensor, CD160 in solution
# From the text: as §2
# [7] = biological target: T1, single chain homotrimeric mouse LIGHT …; assay: Octet bio-layer interferometry, mHVEM-hIgG1 on the sensor, LIGHT in solution
# From the text: as §2
# [8] = biological target: T1, single chain homotrimeric mouse LIGHT …; assay: Octet BLI, mHVEM-hIgG1 immobilised (text says surface plasmon resonance)
# From the text: as §2
# [9] = biological target: B2; assay: as above
# From the text: as §2
# [10] = biological target: B1; assay: as above
# From the text: as §2
# [11] = biological target: B1; assay: Octet bio-layer interferometry, mHVEM-hIgG1 on the sensor, BTLA in solution
# From the text: as §2
# [12] = biological target: B2; assay: Octet bio-layer interferometry, mHVEM-hIgG1 on the sensor, mCD160 in solution
# From the text: as §1, §2
# [13] = biological target: T1, single chain homotrimeric mouse LIGHT …; assay: Octet bio-layer interferometry, mHVEM-hIgG1 on the sensor, mLIGHT in solution
# From the text: as §1, §2
binder,measurement,setting,value
B1,Kd,[1],1.1 µM
same,Kd,[2],1.1 µM
B2,Kd,[3],11.6 µM
same,Kd,[4],11.6 µM
"mouse HVEM (Q39-Q206) H86D-L90A fused to human IgG1 and a hexa-His tag, soluble form (Fc fusion, also called mHVEM^-LIGHT; mHVEM-LIGHT; not shown: human IgG1) chain (part 1 of 2): QPSCRQEEFLVGDECCPMCNPGYHVKQVCSEHTGTVCAPCPPQTYTADANGASKCLPCGVCDPDMGLLTWQECSSWKDTVCRCIPGYFCENQDGSHCSTCLQHTTCPPGQRVEKRGTHDQDTVCADCLTGTFSLGGTQEECLPWTNCSAFQQEVRRGTNSTDTTCSSQ chain (part 2 of 2): HHHHHH",Kd,[5],5.3 µM
same,Kd,[6],33.5 µM
same,Kd,[7],31.7 µM
same,log-fold decrease in binding against wild-type mHVEM,[8],> 3 log-fold
same,fold reduction of binding against wild-type mHVEM,[9],~3 fold
same,fold reduction of binding against wild-type mHVEM,[10],~5 fold
same,Kd,[11],5.3 µM
same,Kd,[12],33.5 µM
same,Kd,[13],31.7 µM
